According to patent US20210171576:

Target: Untagged human mitochondrial ClpP (HsClpP) (UniProt Q16740)
Sequence (Q16740 other isoform, or with tags, fused parts or gaps): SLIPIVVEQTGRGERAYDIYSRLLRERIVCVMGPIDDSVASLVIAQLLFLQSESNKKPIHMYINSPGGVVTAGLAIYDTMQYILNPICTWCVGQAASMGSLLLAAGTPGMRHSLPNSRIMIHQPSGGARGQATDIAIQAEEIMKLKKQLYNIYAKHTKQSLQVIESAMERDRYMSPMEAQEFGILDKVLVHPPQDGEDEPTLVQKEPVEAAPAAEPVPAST

Sequence of Untagged human mitochondrial ClpX (HsClpX) (chain, as listed by the source): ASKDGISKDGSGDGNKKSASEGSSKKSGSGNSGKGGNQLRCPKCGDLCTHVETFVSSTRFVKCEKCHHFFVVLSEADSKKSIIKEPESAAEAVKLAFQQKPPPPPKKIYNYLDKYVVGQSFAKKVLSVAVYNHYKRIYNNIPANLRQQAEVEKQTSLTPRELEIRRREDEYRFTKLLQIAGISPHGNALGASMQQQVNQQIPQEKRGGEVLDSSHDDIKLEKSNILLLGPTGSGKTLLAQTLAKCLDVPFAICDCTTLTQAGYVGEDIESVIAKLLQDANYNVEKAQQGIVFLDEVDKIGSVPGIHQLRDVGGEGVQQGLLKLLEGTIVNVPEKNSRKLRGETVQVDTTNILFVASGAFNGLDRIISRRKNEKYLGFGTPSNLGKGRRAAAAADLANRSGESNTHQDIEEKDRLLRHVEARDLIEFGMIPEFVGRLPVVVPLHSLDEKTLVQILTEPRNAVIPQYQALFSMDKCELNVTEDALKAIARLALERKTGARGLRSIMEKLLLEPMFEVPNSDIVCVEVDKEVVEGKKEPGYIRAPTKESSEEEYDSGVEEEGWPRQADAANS

Substance: Untagged human mitochondrial ClpX (HsClpX)
- Hill coefficient (h) of casein-FITC degradation by HsClpP with titrated HsClpX: mild positive cooperativity (h=1.25) in HsCIpP-binding
- K0.5 (microscopic apparent dissociation constant). Hill fit of initial rates of casein-FITC degradation; HsClpX titrated 0-18 µM against 3 µM HsClpP: a K0.5 of 5.7 µM
- Vmax of casein-FITC degradation by HsClpP with titrated HsClpX: a Vmax of 6.88 RFU.s^-1
